Assay: label from the status in PepcDB records

| Sequence | protein production |
| --- | --- |
| MINARGETMARFTVVIPYYQKQHGVLGRALASVFAQTYQDFDLVIVDDESPYPIDQELAEISQEQKDRIVVIKQANAGPGGARNTGLDHVPDGTDYVAFLDSDDMWTPDHLRNAAFALNTYGGECYWASMQASDEFYYHFAISELEKNEGAARLSEKPLVIELPDLASVMLRNWSFLHLSCMVIGRPLFEKIRFDPALRLAAEDVLFFCDSILASKRTLLCDDAGAMRGMGVNIFHSIDNTSPEFLRQQFNTWVALDTLEGRFSRRPADVASIASYKNTARKQALWSQAGNLKRRRAPQFGLLFKWAMRDPALLRAAFELGAGKIVRSRLEHHHHHH | failed |
| MDKTDSIDIDKQVNTDELFGHPKGLYICFATELWERFSFYGMKYLLLLYLTKYHLFSDGEGLEVLGSYAGLVYTLPVIGGMLADRYLGMKKSVIFGGILLCLGHLLMAVEGHQAVQYAAGTILTSDLTLNNGAVLSAGTLLTETIKIQDLAALNVFYFALSLIVVGVGFLKPNISTIVGQLYSKDDPRRDSGFTIFYMGINLGSFAATIICVYLGETYGWRYGFGAAGIGMLFGLVTFTKGLKYLRGLAEPPDVAVLSEKVWGLISREYLIYLTAILSLSVFWLVIQHEPVVFAAQQVLLVVSGVGLIGYAALKGSREEFQQMLVLMVLIGSTIVFWALFEQAAGSMTLFADRVVERNIAGIEITAGQFGALNAGFIIMLALPFAALWVWLEKFRLNPNIPIKFALGIIQAGLGFGVLVFGAQFPDEAGKISLWWLVLAYLIHTTGELCLSPVGLSAVTKLAIHRVVGLSMGVWFLATALSETLAMRLGKLAAIDTQGGELNSVSDNLIIYTQLFEFLMWIGIGTGVVVLLISPLLKRGMHGVR | failed |
| MTAANSERYALRLLGPFELTAPGGRRVEITSKKGIAVVAMLALSRDGARSRGWLQDRLWGSRRKAEAAGSLRRELSNLRKLLNADGAELLLSDRDRVRLRTDLIDIDLFVARSGRANGEFLEGLDISSERGFGEWLREQRDALVPPAQDVVVSAVTAGAGTLPTHIVDISTPPVGFAGRPAIAVLPFANATGDETLDYVAEGIGEELIVGLSRIRWLPVISRNSSFSFTESDDRKLIGQRLGAQYLVEGRLYRAYDSYGVSASLAEAITGYSLWSRRFTLQSPAAHDELVQFVNELVAQLESRIEHAEQIRIRGKRQDKLGVCDLIWRGRWHLNRLTRADSEMAQKLFAEALALDPDSPEALIQATAALAWSIWAGRQPQDQIQRMRKLSQQAMLADPDDGRGFMLAGIAEMWLRHPLEAKNLLRQAITLTPSLALAHAQLGGCFNLAGEPDRAIVQLKTAMRLSSNDPNIFYSLGELALAYTMLGQWPEAIEHATLALARRPAYWYAHVLKINALARIGQLDAARIACDELLAIKPNFSKRFLDWLPFVDRTWVDHFVQGLKMVPGRPSDWPERETHETAA | failed |
| MFNKKPLADTTARRPSTGAQAKIYSRDNVARYSERARQRRRSHTIRHVALIVVLGVLLSATTAAGLWFATIMGKLGDSNVITDNLRRVLVDTDEAKDPFYVLLLGTDGRPGEDTYRADSIILARIDPTQKQATLISVPRDTKVEYKGETMKINACHTVGGAEAMVEAVNELCGVQISHYAEVSFDGMQALIDSVGGIDINATDDVDDPEHLDIKITAGQQHMDGATALTYARCRYTYADGDYTRMRHQRQVLGALANQILNNFDATKIFGLVNSLSDMLVTDMSVQDIVATVNAMRGMDVDGIYSANLPSYADDSTMIDGVSYVFVYEDELKEMMERVDAGKDPKGPNTMGLSDGSSSTIGDLNNNTSDDYANGTATSSVSSDDSDDSSDSSDSDYYEEPTGDGNGYEANY | failed |
| MITKQDTIYEWIQNGQLEDALKALFQNIEEEPNTIENYINAGIVLADINEIEKAERFFQRAITIDDKNGAVYYNLANLYYDQGKYRDAIKLYQLASKYNMDKIDTNYMIGMSFNQLDAPTESLPYFMTAAELDKNQDAEVQFQYGLALCHLEMFNQAINQLKIVLDIDSKHVDALYNLGLATYMDTEDLDLAMSYFDKAISIDPNHLLSQHAKKTFEAIKNEEE | failed |
| SLMDVKCETPNCPFFMSVNTQPLCHECSERRQKNQN | not failed |
| MMTKFWNDRYKSDEYFYGEEPNTFIKEQAFRLANHNKVIAFAEGEGRNAVFLARQGNEVTAIDYSEDGLEKTKKLAEKHNVNVHTKKVDLLADSLPENEYDAAIMVFGHFHDDYKKMILGKMIQTIKPGGLIMFEVYSKKQINYGTGGPKDVDMLYDPIDILTWCEEHKVIHFFNGEQERIEGKGHTGLADVIQVVIRK | failed |
| MDADNTAHLIYLSLLGAALVFWFISHNRASLGKTLQMALAWVFIFVGVIAVVGLWGDIRSTVAGTPRISVSENRVEIPRSPDGHYYATLIIEDKPLRFLVDTGASQVVLSHADAERLGIDTSALNYFGRAYTANGEVRTAPVKLGRVQLGGFTDQGVTAWVNEGEMSESLLGMDYLQRFRSIEIAGGTLVLAR | failed |
| MKLAYWMYAGPAHIGTLRISSSFRNVHAIMHAPLGDDYFNVMRSMLERERNFTPVTTSVVDRNVLARGSQEKVIDNILRKDTEERPDLIVLTPTCTSSILQEDLQNFVERAKESAQCDVLLADVNHYRVNELQAADRTLEQIVRFYLDRAQRQGTLPSQRTEQPSVNILGMTTLGFHNRHDTTELQRLMADLGITVNAVIPAGASVEELQHLPRAWFNLVPYREVGLLTAQYLQDTFDQPMVAIAPMGITATADCIRQIQQVLNQQGAAVDFEPFIDRQTRFASEAAWFSHSIDCQNLTGKRAVVFGDNTHAAAFTKILSREMGIHVVLAGTYCKHDADWFEAEVAGYCDRVLISDDHNAIADAIAELEPAAIFGTQMERHVGKRLNIPCGVIAAPVHIQNFPVGYRPFVGYEGANQIVDLVYNSFTLGMEDHLLEIFGGHDTKEVLTKTVSAGSDLDWKPDGLTELNRIPGFVRGKVKRNTEKYAREQGLTAITAEVLYAAKEALGALEHHHHHH | not failed |
| PEVGSSEHKLKIRNIKLSDYDDIFEIMESVYADIGGPWTKKELRSHLNHFPEGQICIEDNGKVIAAAFSLIVNYSNYGDKHTYQQITGDGLLTNHDPEGDTLYGIDIFVHPEFRGLRLGRRLYDARKELCEKLNLRAIIVGGRIPGYKNFAKKLTPRQYIEEVKKKEIFDPVLTFQLANDFHLRKIIQGYLPDDRDSKAYAALLEWKNALYEIEE | failed |
| MGTIKIVTDSSITIEPELIKALDITVVPLSVMIDSKLYSDNDLKEEGHFLSLMKASKSLPKTSQPPVGLFAETYENLVKKGVTDIVAIHLSPALSGTIEASRQGAEIAEAPVTVLDSGFTDQAMKFQVVEAAKMAKAGASLNEILAAVQAIKSKTELYIGVSTLENLVKGGRIGRVTGVLSSLLNVKVVMALKNDELKTLVKGRGNKTFTKWLDSYLAKNSHRPIAEIAISYAGEASLALTLKERIAAYYNHSISVLETGSIIQTHTGEGAFAVMVRYE | not failed |
| EQVFQGKLTTVGNPKGNVTLVEFFDYQCIHCKKMASTIENLVKKDSGLRVIYKEFPIFGKTSDLASRVALAAGMQGKYQAMHNALITIDKRLDEKTVMDAAKSIGLDMQKLKKDMDSQEVTDILDANRQLAEKLHLMGTPAFIIGSTPDGQYKKGSEISFIPGATSEQSLRELIKKAAGN | failed |
| MLKILKRIVQDVTAASDLKEALGILVQRINTAINAEAVSVYLIDNKNAEYVLIATEGLNKQAEFRVRIALDCGLIGLIGRREEPINIENAPSHPDFYHNPLIGEDHLNAFLGVPIIQHRKLYGVLVVQQLEQRYFDDAEESFLITLAAQLGGIIAHAEATGELAELTQ | failed |
| MGNYMTYIVGLTGGIGSGKTTIANLFTDLGVPLVDADVVAREVVAKDSPLLSKIVEHFGAQILTEQGELNRAALRERVFNHDEDKLWLNNLLHPAIRERMKQKLAEQTAPYTLFVVPLLIENKLTALCDRILVVDVSPQTQLARSAQRDNNNFEQIQRIMNSQVSQQERLKWADDVINNDAELAQNLPHLQQKVLELHQFYLQQAENKNA | not failed |
| MSVPDNVYLIGTMNTADRSLAGLDIALRRRFDFVEMAPRPDKLTGVKVAEIDISAVLETMNRRIEVLLDREHRLGHAYFMSLENSNDLSRLSNIFRQQIIPLLQEYFFEDWQRIAWILNDHRKDERFRFIVPAPYSVDSLFGDTGQVAQDSKAWRMNEEAFHKPQSYLGLEHHHHHH | not failed |
| IVAGFTSIPSQGDNMPAYHARPKQSDGPLPVVIVVQEIFGVHEHIRDICRRLALEGYLAIAPELYFREGDPNDFADIPTLLSGLVAKVPDSQVLADLDHVASWASRNGGDVHRLMITGFCWGGRITWLYAAHNPQLKAAVAWYGKLTGDKSLNSPKQPVDIATDLNAPVLGLYGGQDNSIPQESVETMRQALRAANAKAEIIVYPDAGHAFNADYRPSYHAESAKDGWQRMLEWFTQY | failed |
| MQDRMLRRVFILAGIALLLWVLYLLKPVVIPFVGAFLIAYLFSPLVEKLSKIGLPRWLSISIVFIGIGVLLTWAMWYVVPLVWQQLMYARDSIPSGIHWVNATFLPWVSHTFNVERMEIDTDQISTVVMEYIQTNYSADSIQTMALRLAQSGLNFIQIGGTIVLIPIISFYFLLDWDRMLNSLRRLIPRPYEESTLRIVYECHSVLGAFVKGQFLVMLLLGIVYAVGLQLIGLEVGLIIGMVAGLASIIPYLGFAVGIIAAVIATVFQFGVDWMQLALVGVVFMIGQAVEGYILQPFLLGDKIGLSPVAVVFAVLAGAQLAGFLGMLIALPVAAVIVVLLRHLREAYEHTQMYAGTATVVSTGNGEHISIETENLDLDIEVKNPQDTDTSIDNDRK | failed |
| EKKEGHFSALPSLPVGSHAKVSSPQPRGPRYAEGTFISDYSIAMDKIHQQDFVNWLLAQKGKKNDWKHNITQREARALELASQANRKEEEAVEPQSSPAKNPSDEDLLRDLLIQELLACLLDQTNLCRLRSR | failed |
| AFLNKHFAKKNHNISVDELSHALELTDKAELTEENNILEGIIRFGGETAKEVMTSRLDVVDLDIRTPFKDVIQCIIDNAYSRIPIYSGTRDNIKGVLYIKDLLPHLNKGDNFRWQSLIRPAYFVPETKMIDDLLRDFQANKIHIAIVVDEFGGTSGIVTMEDIIEEIVGEIHDEYDD | not failed |
| LHDTDQQGMFERGSAIVEPRFRSLLQQIGSMLGEIDNRLLVVGHTDAAQYHRAGGFAAMSNWSLSSNRAMAARLHMMQGGLAADSVLQVVGMAERAPLDKQHPLGAVNRRIELLVLTSGQAQA | failed |
| LNTAPIFMPNTVGGYFPGPRTFPGNKKILYNSSTMVKALSRGYVVVSAGLRGRTLTNEKGEFIGKAPAFIIDMKAAIRYIKFNKDNFPGDVNKIITNGTSAGGAISALIGASGNNVFFEKELDEIGAADSSDNIFAVSAYCPIHNLENADAAYEWQFNGINDWHTQKIDIKNGKAEFSPLNGQLNELEKQLSSKLKNQFIEYLNSLRLRNPDGDYLTLNKIGEGNFLDLTKKFLIKSAQTEIEKGNELNNPNFLDIRNGKVVSLKWKAYLRYITRMKKVPAFDDLGLNNPENDLFGDIKIKAKHFTEIGQKYSEKTAKKADPELVTAINPLNYLNNQSNSLIAKHWRIRHGAADRDTSFAVPIILATTLQNMNLDIDFFMPWAKPHSGDYDLIDLFDWIDSLVKEK | failed |
| VKLVEEYIAANWNESLTIEKLVELTGMSARTVFKAFQRTRGYSPMAFAKRVRMERVRQLLLEAGGDASVGAIAVQCGFPHLGHFAKDYRKTFGENPSDTLARGRRFRGVR | not failed |
